The source of these data is article PMC4474532 (2015).

The chains are these.
B2: BiP (natural protein)
chain: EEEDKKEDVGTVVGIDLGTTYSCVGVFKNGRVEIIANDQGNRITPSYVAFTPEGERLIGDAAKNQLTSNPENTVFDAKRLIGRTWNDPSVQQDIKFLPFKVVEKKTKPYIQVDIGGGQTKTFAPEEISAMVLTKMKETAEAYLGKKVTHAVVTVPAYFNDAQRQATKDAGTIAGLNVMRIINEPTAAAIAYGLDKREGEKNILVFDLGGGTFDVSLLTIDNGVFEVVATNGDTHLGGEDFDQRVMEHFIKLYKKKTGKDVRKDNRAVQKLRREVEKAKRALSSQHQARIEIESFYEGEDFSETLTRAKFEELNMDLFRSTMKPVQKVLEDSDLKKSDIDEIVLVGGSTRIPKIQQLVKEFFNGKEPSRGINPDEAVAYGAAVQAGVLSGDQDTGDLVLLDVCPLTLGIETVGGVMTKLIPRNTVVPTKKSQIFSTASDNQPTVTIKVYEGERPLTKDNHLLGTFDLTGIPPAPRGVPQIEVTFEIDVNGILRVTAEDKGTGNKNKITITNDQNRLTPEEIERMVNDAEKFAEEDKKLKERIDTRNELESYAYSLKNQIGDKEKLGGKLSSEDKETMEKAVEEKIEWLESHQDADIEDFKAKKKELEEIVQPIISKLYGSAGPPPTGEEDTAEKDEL

What all share (experiment): MST
In the experiment “BiP” the target is B2.
The target of experiment [1] is PERK luminal domain L395N (human, UniProt Q9NZJ5 105-403, L395N).
Experiment [2] deals with PERK luminal domain A378N (human, UniProt Q9NZJ5 105-403, A378N).

Sequence of BiP (P11021 19-654): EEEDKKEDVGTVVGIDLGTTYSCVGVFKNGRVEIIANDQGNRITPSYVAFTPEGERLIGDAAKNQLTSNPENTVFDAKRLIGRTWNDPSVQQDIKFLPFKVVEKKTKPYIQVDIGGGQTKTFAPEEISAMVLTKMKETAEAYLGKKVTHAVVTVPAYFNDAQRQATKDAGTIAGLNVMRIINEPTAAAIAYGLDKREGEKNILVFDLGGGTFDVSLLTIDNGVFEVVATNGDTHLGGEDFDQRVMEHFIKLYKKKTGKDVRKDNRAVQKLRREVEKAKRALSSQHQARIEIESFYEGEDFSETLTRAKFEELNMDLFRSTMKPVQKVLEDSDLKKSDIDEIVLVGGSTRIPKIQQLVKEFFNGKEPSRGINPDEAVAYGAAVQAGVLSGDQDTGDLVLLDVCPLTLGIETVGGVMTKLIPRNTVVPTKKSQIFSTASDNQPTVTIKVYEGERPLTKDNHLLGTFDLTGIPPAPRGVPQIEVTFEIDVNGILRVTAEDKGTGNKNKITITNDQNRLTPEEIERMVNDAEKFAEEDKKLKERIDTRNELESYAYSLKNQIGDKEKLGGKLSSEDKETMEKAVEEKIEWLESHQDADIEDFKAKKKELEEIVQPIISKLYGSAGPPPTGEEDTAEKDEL

B1: human PERK luminal domain (residues 105–403) (domain or fragment)
chain: LVIISTLDGRIAALDPENHGKKQWDLDVGSGSLVSSSLSKPEVFGNKMIIPSLDGALFQWDQDRESMETVPFTVESLLESSYKFGDDVVLVGGKSLTTYGLSAYSGKVRYICSALGCRQWDSDEMEQEEDILLLQRTQKTVRAVGPRSGNEKWNFSVGHFELRYIPDMETRAGFIESTFKPNENTEESKIISDVEEQEAAIMDIVIKVSVADWKVMAFSKKGGHLEWEYQFCTPIASAWLLKDGKVIPISLFDDTSYTSNDDVLEDEEDIVEAARGATENSVYLGMYRGQLYLQSSVRI
Turning to B1, the Kd in the experiment with BiP came to 2000 nM.

As to B2, the equilibrium dissociation constant (Kd) stood at 1800 nM in experiment [1] and 2300 nM in experiment [2].
